Source: patent US20190352639A1 (University of Washington, published 2019)

Legend:
[1] = target: the molecule itself; test: size exclusion chromatography and negative stain electron microscopy, self-assembly
[2] = target: the molecule itself; test: electron cryo-tomography of vesicles from transfected HEK293T cells, self-assembly

Protein	binding result [1]	binding result [2]
Myr-I3-01-myc-p6 (designed binder, N-terminal myristoylation motif (6 N-terminal residues of HIV Gag); myristoylated in mammalian cells, not in E. coli, Fusion of the HIV Gag N-terminal six residues, a linker, I3-01, a myc tag and the HIV Gag p6 domain; also called Myr-I3-01-p6) MGARASGSKSGSGSDSGSKMEELFKKHKIVAVLRANSVEEAKKKALAVFLGGVHLIEITFTVPDADTVIKELSFLKEMGAIIGAGTVTSVEQCRKAVESGAEFIVSPHLDEEISQFCKEKGVFYMPGVMTPTELVKAMKLGHTILKLFPGEVVGPQFVKAMKGPFPNVKFVPTGGVNLDNVCEWFKAGVLAVGVGSALVKGTPVEVAEKAKAFVEKIRGCTEQKLISEEDLQSRPEPTAPPEESFRSGVETTTPPQKQEPIDKELYPLTSLRSLFGNDPSSQ	binds	
EPN-01 (designed binder, N-terminal myristoylation motif, Myr-I3-01-myc-p6 with the methionine at the N-terminal end of the I3-01 O domain mutated to isoleucine) MGARASGSKSGSGSDSGSKIEELFKKHKIVAVLRANSVEEAKKKALAVFLGGVHLIEITFTVPDADTVIKELSFLKEMGAIIGAGTVTSVEQCRKAVESGAEFIVSPHLDEEISQFCKEKGVFYMPGVMTPTELVKAMKLGHTILKLFPGEVVGPQFVKAMKGPFPNVKFVPTGGVNLDNVCEWFKAGVLAVGVGSALVKGTPVEVAEKAKAFVEKIRGCTEQKLISEEDLQSRPEPTAPPEESFRSGVETTTPPQKQEPIDKELYPLTSLRSLFGNDPSSQ		binds
